# Reference: patent publication US20260275304A1, “METHODS AND COMPOSITIONS FOR GLYPHOSATE TOLERANCE IN PLANTS” (Monsanto Technology LLC, priority 2023, published 2026)
# B1: TIPS: Zea mays EPSPS double mutant T102I and P106S, SEQ ID NO:9; positive control (protein)
# chain: AGAEEIVLQPIKEISGTVKLPGSKSLSNRILLLAALSEGTTVVDNLLNSEDVHYMLGALRTLGLSVEADKAAKRAVVVGCGGKFPVEDSKEEVQLFLGNAGIAMRSLTAAVTAAGGNATYVLDGVPRMRERPIGDLVVGLKQLGADVDCFLGTDCPPVRVNGIGGLPGGKVKLSGSISSQYLSALLMAAPLALGDVEIEIIDKLISIPYVEMTLRLMERFGVKAEHSDSWDRFYIKGGQKYKSPKNAYVEGDASSASYFLAGAAITGGTVTVEGCGTTSLQGDVKFAEVLEMMGAKVTWTETSVTVTGPPREPFGRKHLKAIDVNMNKMPDVAMTLAVVALFADGPTAIRDVASWRVKETERMVAIRTELTKLGASVEEGPDYCIITPPEKLNVTAIDTYDDHRMAMAFSLAACAEVPVAIRDPGCTRKTFPDYFDVLSTFVKN
# modifications: Zea mays
# notes: positive control
# System: S. cerevisiae strain sKR-024
# Assay: Mock selection for glyphosate resistance, 50:50 inoculum, flow cytometry
# Type: cell-based, Saccharomyces cerevisiae
# Protocol: Yeast cultures were either started directly from a random colony or from freezer stock and picked in triplicate into appropriate selective media, either YSC-Ura, YSC-Leu, and YSC-Ura-Leu. Cultures were grown for 48 hours at 30° C. to saturation phase. Fully grown yeast cultures were then diluted back to OD 0.01 and allowed to grow for 48 hours at 30° C. in a 96 deep-well plate shaker. Fluorescence was then analyzed via flow cytometry (BD Accuri C6 Flow Cytometer, BD Biosciences) at an excitation of 588 nm and emission of 633 nm for mKate2 RFP. Yeast populations of interest were then gated according to relative size and complexity using a logarithmic plot of side scatter (SSC) and forward scatter (FSC) and spectra were generated outlining RFP fluorescence intensity vs. cell count. FlowJo software was used to analyze all flow cytometry data.
# To do so, a mock selection for glyphosate resistance was achieved by transforming wild-type EPSPS into sKR-024 containing an RFP cassette and TIPS into sKR-024 without an RFP cassette to enable flow cytometry tracking of population distributions. A 50:50 starting inoculum of each strain was cultured in yeast minimal media containing 0, 2.5, 5, 7.5, or 10 mM glyphosate.
molecule,measurement,setting,value
B1,cell count after addition of glyphosate,"0, 2.5, 5, 7.5 or 10 mM glyphosate",consistent cell count across multiple levels of glyphosate
same,cell count in the absence of glyphosate,0 mM glyphosate,consistently lower cell count of TIPS relative to wild-type EPSPS
